Here are results for one substance from publication PMC2879644.

In the test the target is Biotinylated histone H3 peptide (aa 21-44) tri-methylated on K27 (UniProt P68431). In words: pull-down.

“GST-SUMO1-fused Pc2(1-100) (from UniProt O00257 1-100)”: the fold change of the amount bound against Pc2 (1-100) is more than 4 fold.
